Values of other authors in publication PMC10925690.

Assays:
[1] = molecular target: FcγRIIIa F158 (Homo sapiens) (UniProt P08637); assay: SPR; details: cited from earlier work
[2] = molecular target: FcγRIIIa V158 (Homo sapiens) (UniProt P08637); assay: SPR; details: cited from earlier work
Chain of FcγRIIIa V158 (Homo sapiens) (P08637 17-254): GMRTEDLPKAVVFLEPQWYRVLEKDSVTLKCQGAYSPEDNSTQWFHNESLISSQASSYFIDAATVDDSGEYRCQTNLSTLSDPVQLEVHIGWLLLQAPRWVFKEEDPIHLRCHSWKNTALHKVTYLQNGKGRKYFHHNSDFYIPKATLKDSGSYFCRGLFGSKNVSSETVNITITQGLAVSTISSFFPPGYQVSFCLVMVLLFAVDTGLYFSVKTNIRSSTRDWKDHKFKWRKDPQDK

Chain of FcγRIIIa F158 (Homo sapiens) (P08637 17-254): as above

IgG1 Fc Fc (from UniProt P01857)
Kd [1]: 2.5 µM
Kd [2]: 0.4 µM
